{"source": "patent US20110033521A1", "about": "(RAPPAPORT FAMILY INSTITUTE FOR RESEARCH IN THE MEDICAL …, published 2011)", "binders": {"B1": {"name": "CCR2(E3)-IgG fusion protein (Fc fusion)", "chain": "GLSNCESTSQLDQATQVTET", "notes": "also called Ig-E3; CCR2-IgG; not shown: constant region (Hinge-CH2-CH3) of human IgG1 heavy chain, ligated downstream of CCR2 (E3)"}}, "molecular_target": "T1, recombinant human MCP-1 (CCL2) (human, UniProt P13500 24-99)", "T1 construct": "Bought recombinant protein; also called RHMCP-1; monocyte chemoattractant protein-1", "T1 sequence (P13500 24-99 limits assumed)": "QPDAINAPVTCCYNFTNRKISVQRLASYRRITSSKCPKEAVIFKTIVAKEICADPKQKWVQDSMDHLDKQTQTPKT", "assay": "direct ELISA (O.D. 450 nm), chemokine coated at 100 ng/ml, CCR2(E3)-IgG at 5 ug/ml; reference: other human chemokines tested", "protocol": "ELISA—The binding specificity of CCR2(E3)-IgG to various commercially available human chemokines (PeproTech, Rocky Hill, N.J.) was determined by direct ELISA as follows: 96-well ELISA plates (Nunc, Roskilde, Denemark) were coated with 100 ng/ml of each chemokine, washed and blocked with 1% BSA/PBS. CCR2(E3)-IgG at a concentration 5 μg/ml was then added. HRP labeled mouse anti human Ig (Jackson, Pa.) was added as a second Antibody. Results are shown as O.D. reading at 450 nm. Anti CCL2 monoclonal antibody (MAB679; R&D Systems, Minneapolis, […].) was used as a positive control (1 μg/ml)."}
{"binder": "B1", "values": [{"measurement": "fold binding against other factors tested", "value": "~4", "unit": "fold"}]}
